Experimental data published in patent publication US20140087995A1 (published 2014).
One block for each binder: values may come before it. Numbered stars: 1 amine (or outer) side, 2 acyl side, 3 side chain; on linkers, the order of the positions; unused ones are H or OH. Bridge positions count the residues as written; N and C are the ends. Square brackets hold non-standard residues; d marks the D form. Side chains are listed from the residue outwards. Ends that are not written are not given here. * marks the point of attachment. C20 diacid = O=C(O)CCCCCCCCCCCCCCCCCCC(=O)*; γGlu = O=C(O)[C@H](CCC(=O)[*:2])N[*:1]

Legend:
[1] = biological target: T1, human amylin receptor (amylin 3(a) receptor: human calcitonin receptor with RAMP-3) (human, UniProt P30988 25-474; O60896 24-148, limits assumed); experiment: cell-based or functional assay
T1 sequence (looked up) 1: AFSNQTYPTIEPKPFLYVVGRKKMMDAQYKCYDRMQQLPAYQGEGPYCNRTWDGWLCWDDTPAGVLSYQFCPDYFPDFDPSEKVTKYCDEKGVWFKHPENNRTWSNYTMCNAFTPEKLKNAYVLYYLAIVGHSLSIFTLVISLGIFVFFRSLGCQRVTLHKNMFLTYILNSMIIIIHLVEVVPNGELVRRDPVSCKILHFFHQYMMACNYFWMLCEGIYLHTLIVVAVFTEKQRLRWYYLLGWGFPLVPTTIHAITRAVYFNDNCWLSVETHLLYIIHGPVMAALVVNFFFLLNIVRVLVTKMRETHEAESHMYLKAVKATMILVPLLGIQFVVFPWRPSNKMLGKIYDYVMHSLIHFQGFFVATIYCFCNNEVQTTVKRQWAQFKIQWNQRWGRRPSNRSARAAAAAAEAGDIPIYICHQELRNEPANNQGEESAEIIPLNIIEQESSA
T1 sequence (looked up) 2: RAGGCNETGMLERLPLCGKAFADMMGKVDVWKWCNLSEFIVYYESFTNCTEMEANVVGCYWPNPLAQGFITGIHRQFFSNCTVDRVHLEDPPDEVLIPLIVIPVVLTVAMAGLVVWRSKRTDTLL

[2] = biological target: T2, human calcitonin receptor (human, UniProt P30988 25-474); experiment: cell-based or functional assay
T2 sequence (looked up): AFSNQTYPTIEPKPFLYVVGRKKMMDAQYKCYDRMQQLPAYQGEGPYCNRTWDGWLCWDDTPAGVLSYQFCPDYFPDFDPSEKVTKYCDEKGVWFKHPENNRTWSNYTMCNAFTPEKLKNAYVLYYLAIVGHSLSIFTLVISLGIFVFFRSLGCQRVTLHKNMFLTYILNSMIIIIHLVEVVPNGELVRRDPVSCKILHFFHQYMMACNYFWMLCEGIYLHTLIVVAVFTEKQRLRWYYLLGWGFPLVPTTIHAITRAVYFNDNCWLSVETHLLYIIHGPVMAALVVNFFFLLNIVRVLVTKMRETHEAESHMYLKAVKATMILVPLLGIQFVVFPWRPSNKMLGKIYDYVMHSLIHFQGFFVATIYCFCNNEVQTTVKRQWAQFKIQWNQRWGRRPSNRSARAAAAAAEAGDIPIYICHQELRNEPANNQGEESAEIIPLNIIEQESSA

[3] = biological target: T3, human calcitonin receptor (human, UniProt P30988 25-474); experiment: ratio of IC50 at human calcitonin receptor to IC50 at human amylin receptor (SPA competition assays)
T3 construct: whole, on cells; also called hCTR; hCT
T3 sequence (looked up): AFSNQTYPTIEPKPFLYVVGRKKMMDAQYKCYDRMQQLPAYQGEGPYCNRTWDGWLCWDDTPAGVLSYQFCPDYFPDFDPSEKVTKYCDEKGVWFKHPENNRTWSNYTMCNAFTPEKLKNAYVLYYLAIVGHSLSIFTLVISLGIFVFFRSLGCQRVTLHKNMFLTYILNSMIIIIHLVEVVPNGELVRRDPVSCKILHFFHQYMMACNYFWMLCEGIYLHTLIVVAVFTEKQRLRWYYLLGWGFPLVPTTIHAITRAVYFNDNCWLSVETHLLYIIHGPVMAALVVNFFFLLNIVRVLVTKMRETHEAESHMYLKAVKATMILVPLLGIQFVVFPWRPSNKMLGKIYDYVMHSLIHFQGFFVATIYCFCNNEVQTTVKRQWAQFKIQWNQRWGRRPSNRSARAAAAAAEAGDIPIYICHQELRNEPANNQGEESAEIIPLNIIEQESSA
In short: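 Competition binding by SPA uses membrane preparations (35 ng/μL final) in pH 7.4 Hepes buffer with 1 mM CaCl2 and 5 mM MgCl₂. Incubation lasts 120 min at 25° C, and IC₅₀ comes from one-site fitting.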

[4] = biological target: T3, human calcitonin receptor; experiment: SPA competition against 125I-calcitonin, membranes of BHK cells with human calcitonin receptor (Assay VII)
In short: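 BHK hCTR membranes 35 ng/μL + SPA beads 0.05 mg/well; buffer 50 mM Hepes pH 7.4, 1 mM CaCl2, 5 mM MgCl₂, 0.1% OA, 0.02% Tween20. 120 min, 25° C., shaking. Scintillation count; IC50 by one-site binding competition.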

Binder: K([γGlu-C20 diacid])CNTATCATQRLAEFLRHSSPNFGAIPSSTNVGPHTY-NH2 (disulfide 2-7 (inferred))
hAmylin-R funct. EC50 (pM) [1]: 101 pM
hCTR funct. EC50 (pM) [2]: 1450 pM

Binder: K([γGlu-γGlu-C20 diacid])CNTATCATQRLAEFLRHSSPNFGAIPSSTNVGPETP-NH2 (disulfide 2-7 (inferred))
Ratio hCT/hAmylin funct. [1]: 0.8
hAmylin-R funct. EC50 (pM) [1]: 132 pM
hCTR funct. EC50 (pM) [2]: 102 pM

Binder: K([γGlu-γGlu-C20 diacid])CNTATCATQRLA[dD]FLRHSSPNFGAIPSSTNVGSRTY-NH2 (disulfide 2-7 (inferred))
hAmylin-R funct. EC50 (pM) [1]: 383 pM
hCTR funct. EC50 (pM) [2]: 100000 pM

Binder: K([γGlu-γGlu-C20 diacid])CNTATCATQRLANFLRHSSPNFGAIPSSTPVGPRTY-NH2 (disulfide 2-7 (inferred))
hAmylin-R funct. EC50 (pM) [1]: 333 pM
hCTR funct. EC50 (pM) [2]: 8660 pM

Binder: K([γGlu-γGlu-C20 diacid])CNTATCATQRLADFLRHSSPNFGAIPSSTNVGPRTY-NH2 (disulfide 2-7 (inferred), also called compound 130)
hAmylin-R funct. EC50 (pM) [1]: 162 pM
hCTR funct. EC50 (pM) [2]: 7280 pM

B1: N^ε1-[(4S)-4-carboxy-4-(19-carboxynonadecanoylamino)butanoyl]-[Glu14,Arg17,Pro21,Pro27,Pro34,Arg35]-h-amylin (peptide)
peptide: K([γGlu-C20 diacid])CNTATCATQRLAEFLRHSSPNFGAIPSSTNVGPRTY-NH2
modifications: disulfide 2-7; N-terminus assumed
SMILES: CC[C@H](C)[C@H](NC(=O)[C@H](C)NC(=O)CNC(=O)[C@H](Cc1ccccc1)NC(=O)[C@H](CC(N)=O)NC(=O)[C@@H]1CCCN1C(=O)[C@H](CO)NC(=O)[C@H](CO)NC(=O)[C@H](Cc1c[nH]cn1)NC(=O)[C@H](CCCNC(=N)N)NC(=O)[C@H](CC(C)C)NC(=O)[C@H](Cc1ccccc1)NC(=O)[C@H](CCC(=O)O)NC(=O)[C@H](C)NC(=O)[C@H](CC(C)C)NC(=O)[C@H](CCCNC(=N)N)NC(=O)[C@H](CCC(N)=O)NC(=O)[C@@H](NC(=O)[C@H](C)NC(=O)[C@@H]1CSSC[C@H](NC(=O)[C@@H](N)CCCCNC(=O)CC[C@H](NC(=O)CCCCCCCCCCCCCCCCCCC(=O)O)C(=O)O)C(=O)N[C@@H](CC(N)=O)C(=O)N[C@@H]([C@@H](C)O)C(=O)N[C@@H](C)C(=O)N[C@@H]([C@@H](C)O)C(=O)N1)[C@@H](C)O)C(=O)N1CCC[C@H]1C(=O)N[C@@H](CO)C(=O)N[C@@H](CO)C(=O)N[C@H](C(=O)N[C@@H](CC(N)=O)C(=O)N[C@H](C(=O)NCC(=O)N1CCC[C@H]1C(=O)N[C@@H](CCCNC(=N)N)C(=O)N[C@H](C(=O)N[C@@H](Cc1ccc(O)cc1)C(N)=O)[C@@H](C)O)C(C)C)[C@@H](C)O
Ratio hCT/hAmylin binding [3]: 38.6
IC50 [4]: 6.3 nM

B2: N^ε1-[(4S)-4-carboxy-4-[[(4S)-4-carboxy-4-(19-carboxynonadecanoylamino)butanoyl]amino]butanoyl]-[D-Asp14,Arg17,Pro21,Pro27,Arg35]-h-amylin (peptide)
peptide: K([γGlu-γGlu-C20 diacid])CNTATCATQRLA[dD]FLRHSSPNFGAIPSSTNVGSRTY-NH2
modifications: disulfide 2-7; N-terminus assumed
SMILES: CC[C@H](C)[C@H](NC(=O)[C@H](C)NC(=O)CNC(=O)[C@H](Cc1ccccc1)NC(=O)[C@H](CC(N)=O)NC(=O)[C@@H]1CCCN1C(=O)[C@H](CO)NC(=O)[C@H](CO)NC(=O)[C@H](Cc1c[nH]cn1)NC(=O)[C@H](CCCNC(=N)N)NC(=O)[C@H](CC(C)C)NC(=O)[C@H](Cc1ccccc1)NC(=O)[C@@H](CC(=O)O)NC(=O)[C@H](C)NC(=O)[C@H](CC(C)C)NC(=O)[C@H](CCCNC(=N)N)NC(=O)[C@H](CCC(N)=O)NC(=O)[C@@H](NC(=O)[C@H](C)NC(=O)[C@@H]1CSSC[C@H](NC(=O)[C@@H](N)CCCCNC(=O)CC[C@H](NC(=O)CC[C@H](NC(=O)CCCCCCCCCCCCCCCCCCC(=O)O)C(=O)O)C(=O)O)C(=O)N[C@@H](CC(N)=O)C(=O)N[C@@H]([C@@H](C)O)C(=O)N[C@@H](C)C(=O)N[C@@H]([C@@H](C)O)C(=O)N1)[C@@H](C)O)C(=O)N1CCC[C@H]1C(=O)N[C@@H](CO)C(=O)N[C@@H](CO)C(=O)N[C@H](C(=O)N[C@@H](CC(N)=O)C(=O)N[C@H](C(=O)NCC(=O)N[C@@H](CO)C(=O)N[C@@H](CCCNC(=N)N)C(=O)N[C@H](C(=O)N[C@@H](Cc1ccc(O)cc1)C(N)=O)[C@@H](C)O)C(C)C)[C@@H](C)O
IC50 [4]: 112 nM

Binder: K([γGlu-C20 diacid])CNTATCATQRLADFLRHSSPNFGAIPSSTNVGPETY-NH2 (disulfide 2-7 (inferred))
Ratio hCT/hAmylin funct. [1]: 3.9
hAmylin-R funct. EC50 (pM) [1]: 288 pM
hCTR funct. EC50 (pM) [2]: 1120 pM

Other lines, results leading:

hAmylin-R funct. EC50 (pM) [1]: 172 pM
hCTR funct. EC50 (pM) [2]: 2830 pM
Binder: K([γGlu-γGlu-C20 diacid])CNTATCATQRLAEFLRHSSPNFGAIPSSTNVGPHTY-NH2 (disulfide 2-7 (inferred))

Ratio hCT/hAmylin funct. [1]: 9.9
hAmylin-R funct. EC50 (pM) [1]: 216 pM
hCTR funct. EC50 (pM) [2]: 2140 pM
Binder: K([γGlu-γGlu-C20 diacid])CNTATCATQRLAEFLRHSSPNFGAIPSSTNVGPNTF-NH2 (disulfide 2-7 (inferred))

Ratio hCT/hAmylin funct. [1]: 5.8
hAmylin-R funct. EC50 (pM) [1]: 222 pM
hCTR funct. EC50 (pM) [2]: 1280 pM
Binder: K([γGlu-γGlu-C20 diacid])CNTATCATQRLAEFLRHSSPNFGAILSSTPVGPETY-NH2 (disulfide 2-7 (inferred))

Ratio hCT/hAmylin funct. [1]: 8.1
hAmylin-R funct. EC50 (pM) [1]: 109 pM
hCTR funct. EC50 (pM) [2]: 887 pM
Binder: K([γGlu-γGlu-C20 diacid])CNTATCATQRLASFLRHSSPNFGAIPSSTNVGPETY-NH2 (disulfide 2-7 (inferred), also called compound 120)

hAmylin-R funct. EC50 (pM) [1]: 5170 pM
hCTR funct. EC50 (pM) [2]: 89600 pM
Binder: K([γGlu-γGlu-C20 diacid])CNTATCATQRLAEFLRHSSNNPGAILSSTNVGPETY-NH2 (disulfide 2-7 (inferred))
